In patent US20160185837A1 (Medimmune Limited, priority 2013, published 2016):
pEC50: −log10 of the molar value. Ends that are not written are not given here.

Assays:
cyno GCGr (cGCGr) = experiment: cAMP assay, cells expressing cyno GCGr, 4.2% cyno serum albumin; format: cell-based, cynomolgus monkey; conditions: culture medium containing 4.2% cyno serum albumin
Source text: (§1) In certain aspects, the assay can also be carried out in medium supplemented with serum albumin that corresponds to the receptor being tested, e.g., human serum albumin for testing cAMP activity at hGIPr or hGLP-1r, rat serum albumin for testing cAMP activity at rGIPr or rGLP-1r, and so on. Low protein binding 384-well plates (Greiner #781280) were used to perform eleven 1 in 5 serial dilutions of test samples that were made in assay medium. All sample dilutions were made in duplicate.
A frozen cryo-vial of cells expressing the receptor of interest was thawed rapidly in a water-bath, transferred to pre-warmed assay media and spun at 240×g for 5 minutes. Cells were re-suspended in assay buffer at an optimized concentration (e.g., hGLP-1r and hGIPr cells at 0.5×10^5 cells/ml). […]
cAMP levels were measured using a commercially available cAMP dynamic 2 HTRF kit (Cisbio, Cat #62AM4PEJ), following the two step protocol as per manufacturer's recommendations. […] Plates were incubated at room temperature for one hour and then read on an Envision (Perkin Elmer) using excitation wavelength of 320 nm and emission wavelengths of 620 nm & 665 nm. Data was transformed to % Delta F as described in manufacturer's guidelines and then transformed to percent activation of maximal native agonist response and analysed by 4-parameter logistic fit to determine EC50 values.

[1] = Extended pharmacokinetics, serum ELISA for protein (Fc) detection; format: in vivo, CD male rats; conditions: 1 mg/kg subcutaneously or intravenously, serum out to 168 hours
Experimental: More extended pharmacokinetic assays to determine protein stability and activity were performed as follows. CD male rats (n=3) were injected subcutaneously or intravenously with 1 mg/kg IP088 or GLP1a-Fc. Periodic serum samples were obtained out to 168 hours. The serum samples were subjected to ELISA for protein (Fc) detection by the following method. ELISA plates (Costar 3690) were coated with Mouse anti-human IgG (JCD-10) 1/500 in PBS (final concentration 1 μg/ml). […] was added to each well and the plates were incubated overnight at 4° C. Following washing with PBS-Tween (PBS-T), the plates were blocked with […] 1% BSA in PBS for 1 h at RT with gentle shaking. Following washing with PBS-T, standards, and dilutions of […] samples were added (50 μl/well), and the plate was incubated for 2 h at RT with gentle shaking. Following washing […] biotinylated mouse anti-human IgG (JCD-10) diluted 1/1000 in ELISA incubation buffer (final concentration 0.5 μg/ml) was added to each well and the plates were incubated for 1 h at RT with gentle shaking. Following washing […] of Streptavidin-HRP diluted 1/1000 in ELISA incubation buffer was added to each well, and the plates were incubated for 45 min at RT with gentle shaking. […]

cyno GLP-1r (cGLP-1r) = target: T1, cyno GLP-1r (cGLP-1r) (Macaca fascicularis, UniProt F8V479); experiment: cAMP assay, cells expressing cyno GLP-1r, 4.2% cyno serum albumin; format: cell-based, cynomolgus monkey; conditions: culture medium containing 4.2% cyno serum albumin; read-out: EC50 for cGLP-1r
T1 construct: expressed in transfected cells
T1 sequence (F8V479 24-463): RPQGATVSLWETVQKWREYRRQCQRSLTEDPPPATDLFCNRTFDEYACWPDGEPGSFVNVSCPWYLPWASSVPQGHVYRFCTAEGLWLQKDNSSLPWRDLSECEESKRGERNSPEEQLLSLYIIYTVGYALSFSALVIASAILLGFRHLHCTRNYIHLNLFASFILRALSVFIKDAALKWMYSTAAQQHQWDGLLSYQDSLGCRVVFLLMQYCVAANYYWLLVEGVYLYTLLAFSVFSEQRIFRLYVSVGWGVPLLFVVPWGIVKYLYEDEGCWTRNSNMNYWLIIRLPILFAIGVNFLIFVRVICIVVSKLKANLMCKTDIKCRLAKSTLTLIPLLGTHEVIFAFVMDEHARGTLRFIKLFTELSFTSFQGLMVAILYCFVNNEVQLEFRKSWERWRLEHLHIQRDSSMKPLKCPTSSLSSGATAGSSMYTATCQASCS
Source text: as §1, with “Low protein binding 384-well plates (Greiner #781280) were used to perform eleven 1 in 5 serial dilutions of test samples that were made in assay medium.” left out
A frozen cryo-vial of cells expressing the receptor of interest was thawed rapidly in a water-bath, transferred to pre-warmed assay media and spun at 240×g for 5 minutes. Cells were re-suspended in assay buffer at an optimized concentration (e.g., hGLP-1r and hGIPr cells at 0.5×10^5 cells/ml).
To this, 5 μL cell suspension was added and the plates incubated at room temperature for 30 minutes.
cAMP levels were measured using a commercially available cAMP dynamic 2 HTRF kit (Cisbio, Cat #62AM4PEJ), following the two step protocol as per manufacturer's recommendations. In brief; anti-cAMP cryptate (donor fluorophore) and cAMP-d2 (acceptor fluorophore) were made up separately by diluting each 1/20 in conjugate & lysis buffer provided in the kit. […] Data was transformed to % Delta F as described in manufacturer's guidelines and then transformed to percent activation of maximal native agonist response and analysed by 4-parameter logistic fit to determine EC50 values.

pEC50 (cyno GCGr (cGCGr)): < 6.00
pEC50 (cyno GLP-1r (cGLP-1r)): 10.96
Substance: GLP1a-Fc: GLP-1 analogue-Fc (gamma4) fusion control; GLP-1 agonist; Peptide SEQ ID NO:62-Fc, SEQ ID NO:189 (HGEGTFTSDVSSYLEEQAAKEFIAWLVKGR; also: Fc (gamma4) fusion)
PK profile by Fc ELISA (Cmax, bioavailability, half-life), in words [1]: equivalent PK profiles
